The data set concerns the molecule itself. Put plainly: crystal structure.

The text below walks through data of publication PMC3035459 (Nucleic Acids Research, 2010).

B1: Methanocaldococcus jannaschii O-phosphoseryl-tRNA kinase (enzyme, UniProt Q58933 1-248, looked up)
chain: MLIILTGLPGVGKSTFSKNLAKILSKNNIDVIVLGSDLIRESFPVWKEKYEEFIKKSTYRLIDSALKNYWVIVDDTNYYNSMRRDLINIAKKYNKNYAIIYLKASLDVLIRRNIERGEKIPNEVIKKMYEKFDEPGKKYKWDEPFLIIDTTKDIDFNEIAKKLIEKSKEIPKFYVLEENKNKNNNISDKIDKETRKIVSEYIKSKKLDKDKIKEVVELRKEFLKKIKKMEEVDADRVLKEFKDLLNSY
What is called stoichiometry N is a count of units in the complex or per binding partner. With B1, the “stoichiometry N” value is 2.
